Experimental data taken from US20250361274A1, “PEPTIDE AND PEPTIDE-CONTAINING AGENT” (PEPTIDREAM INC., priority 2022, published 2025).
Numbered stars: 1 amine (or outer) side, 2 acyl side, 3 side chain; on linkers, the order of the positions; unused ones are H or OH. Bridge positions count the residues as written; N and C are the ends. Square brackets hold non-standard residues; d marks the D form. Ends that are not written are not given here. Peptide text beside a SMILES is read from it. KCOpipzaa = N6-(4-(carboxymethyl)piperazine-1-carbonyl)-L-lysine, O=C(NCCCC[C@H](N[*:1])C(=O)[*:2])N1CCN(CC(=O)[*:3])CC1; pBph3F = (S)-2-amino-3-(3-fluoro-[1,1'-biphenyl]-4-yl)propanoic acid, O=C([C@H](Cc1ccc(-c2ccccc2)cc1F)N[*:1])[*:2]; X7 = O=C(O)CCC(NC(=O)CCNC(=O)[C@H](CSCC(=O)[*:1])CC(=O)[C@H](CO)N[*:2])C(=O)O; Hgn = (S)-2,6-diamino-6-oxohexanoic acid, NC(=O)CCC[C@H](N[*:1])C(=O)[*:2]; Phe(4-(3-Py)) = N[C@@H](Cc1ccc(-c2cccnc2)cc1)C(=O)O; 3Pal(6-Ph) = N[C@@H](Cc1ccc(-c2ccccc2)nc1)C(=O)O; Phe(4-COOH) = N[C@@H](Cc1ccc(C(=O)O)cc1)C(=O)O; NMePhe(4-Cl) = CN[C@@H](Cc1ccc(Cl)cc1)C(=O)O; NMePhe(4-Me) = CN[C@@H](Cc1ccc(C)cc1)C(=O)O; Bip = N[C@@H](Cc1ccc(-c2ccccc2)cc1)C(=O)O; Nle(6-COOH) = N[C@@H](CCCCC(=O)O)C(=O)O; X1 = N=C(CN)NCCC[C@H](N[*:1])C(=O)[*:2]; Phe(3-Me) = Cc1cccc(C[C@H](N)C(=O)O)c1; Phe(4-F) = N[C@@H](Cc1ccc(F)cc1)C(=O)O; cisHyp = O=C(O)[C@@H]1C[C@H](O)CN1; Hyp = O=C(O)[C@@H]1C[C@@H](O)CN1; NMeF = CN[C@@H](Cc1ccccc1)C(=O)O; 4Pal = N[C@@H](Cc1ccncc1)C(=O)O; Aad = N[C@@H](CCCC(=O)O)C(=O)O; Cha = N[C@@H](CC1CCCCC1)C(=O)O; Abu = CC[C@H](N)C(=O)O; βAla = NCCC(=O)O

Assays:
[1] = biological target: T1, BMP4 (Homo sapiens, UniProt P12644); experiment: BMP4 signal transduction inhibitory activity: SMAD1 phosphorylation by BMP4 stimulus, AlphaLISA SureFire, A549 cells; format: cell-based; conditions: for aLISA BMP4: inhibition of SMAD1 phosphorylation by BMP4 stimulus, A549 cells
T1 sequence (P12644 293-408): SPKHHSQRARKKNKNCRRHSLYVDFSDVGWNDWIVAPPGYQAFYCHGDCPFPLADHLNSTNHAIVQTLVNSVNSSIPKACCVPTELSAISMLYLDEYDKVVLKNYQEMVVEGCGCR

[2] = biological target: T2, BMP7 (Homo sapiens, UniProt P18075); experiment: BMP7 signal transduction inhibitory activity: SMAD1 phosphorylation by BMP7 stimulus, A549 cells; format: cell-based; conditions: for aLISA BMP7: inhibition of SMAD1 phosphorylation by BMP7 stimulus, A549 cells
T2 sequence (P18075 293-431): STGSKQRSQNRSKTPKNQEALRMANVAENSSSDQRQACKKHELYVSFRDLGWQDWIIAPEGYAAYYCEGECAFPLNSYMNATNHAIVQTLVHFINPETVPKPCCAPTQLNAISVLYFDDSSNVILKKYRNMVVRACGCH
Outline: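 A549 cells were stimulated with 10 nM BMP7, and the read-out was SMAD1 phosphorylation. Peptides were tested at three concentrations spanning 1 to 1,000 nM, with sets depending on the peptide series. Some peptides were run in eight-point 1/3 dilutions starting from 100 nM or 1,000 nM, with recombinant human Noggin as positive control at matching concentrations.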

[3] = BMP4 0.2 nM stimulus, peptide conc. in assay 0.02, 0.2, 2 nM, class symbols
[4] = BMP4 0.2 nM stimulus, peptide conc. in assay 2, 20, 200 nM
[5] = BMP7 10 nM stimulus, peptide conc. in assay 10, 30, 90 nM
[6] = BMP4 0.2 nM stimulus, peptide conc. in assay 0.2, 2, 20 nM
[7] = BMP7 10 nM stimulus, peptide conc. in assay 1, 10, 100 nM
[8] = peptides of Synthesis 2, classes A-C, ND
[9] = peptides of Synthesis 2, classes A-D, ND
[10] = SMAD1 phosphorylation, BMP4 0.2 nM, peptide conc. in assay 0.2, 2, 20 nM
[11] = SMAD1 phosphorylation, BMP7 10 nM, peptide conc. in assay 1, 10, 100 nM
[12] = AlphaLISA, class by peptide concentration zone

## 301 (ERV[Phe(4-COOH)]V[KCOpipzaa]R[3Pal(6-Ph)][KCOpipzaa]Y[Hyp][pBph3F]Y[Phe(4-COOH)][Phe(4-COOH)]SCG-NH2; not fully specified (N-terminus, bridges); also: cyclic peptide, ring closure not given here) [compound 301]
[1]; [3]
  aLIZA BMP4 (0.2 nM) % inh: C (showed less than 30% of inhibitory activity in 0.2 nM-addition zone and showed 30% or more of inhibitory activity in 2 nM-addition zone)
[2]; BMP7 10 nM stimulus, peptide conc. in assay 10, 100, 1000 nM, class symbols
  aLIZA BMP7 (10 nM) % inh: E (showed less than 30% of inhibitory activity in 100 nM-addition zone and showed 30% or more of inhibitory activity in 1,000 nM-addition zone)

## 381 (FG[NMeF]G[Phe(3-Me)]GDD[Cha]A[NMeF]LHCG-NH2; not fully specified) [compound 381]
[1]; [4]
  aLISA BMP4 (0.2 nM) % inh: ND (the inhibitory activity was less than 30% at the maximum concentration evaluated)
[2]; [5]
  aLISA BMP7 (10 nM) % inh: G (showed less than 30% of inhibitory activity in 30 nM-addition zone and showed 30% or more of inhibitory activity in 90 nM-addition zone)

## 418 (FG[NMeF]G[3Pal(6-Ph)]GDE[Cha][Aad][NMeF]L[Abu]C-NH2; not fully specified) [compound 418]
[1]; [6]
  aLISA BMP4 (0.2 nM) % inh: ND (the inhibitory activity was less than 30% at the maximum concentration evaluated)
[2]; [7]
  aLISA BMP7 (10 nM) % inh: D (showed less than 30% of inhibitory activity in 10 nM-addition zone and showed 30% or more of inhibitory activity in 100 nM-addition zone)

## 378 (FG[NMeF]G[Phe(4-F)]GDD[Cha]A[NMeF]LHCG-NH2; not fully specified) [compound 378]
[1]; [4]
  aLISA BMP4 (0.2 nM) % inh: ND (the inhibitory activity was less than 30% at the maximum concentration evaluated)
[2]; [5]
  aLISA BMP7 (10 nM) % inh: F (showed less than 30% of inhibitory activity in 10 nM-addition zone and showed 30% or more of inhibitory activity in 30 nM-addition zone)

## CC(C)C[C@@H]1NC(=O)[C@H](Cc2ccc(O)cc2)NC(=O)[C@H](C(C)C)NC(=O)[C@H](CCCNC(=N)N)NC(=O)[C@H](CCCCC(=O)O)NC(=O)CSC[C@@H](C(=O)NCCC(=O)NC(CCC(=O)O)C(=O)O)CC(=O)[C@H](CO)NC(=O)[C@H](Cc2ccc(C(=O)O)cc2)NC(=O)[C@H](Cc2ccc(C(=O)O)cc2)NC(=O)[C@H](Cc2ccc(O)cc2)NC(=O)[C@H](Cc2ccc(-c3ccccc3)cc2)NC(=O)[C@H](C(C)C)NC(=O)[C@H](Cc2ccc(O)cc2)NC(=O)[C@@H]2CCCN2C(=O)[C@H](Cc2ccc(-c3ccccc3)nc2)NC(=O)[C@H](CCCNC(=N)CN)NC(=O)[C@H](CC(=O)O)NC1=O (some centres unmarked) [SEQ ID No. 84] ([Nle(6-COOH)]RVYLD[X1][3Pal(6-Ph)]PYV[Bip]Y[Phe(4-COOH)][Phe(4-COOH)]; linker N-C via X7)
[1]; [8]
  aLISA BMP4: A (showed an inhibitory activity of 50% or more in a zone to which the peptide was added to in an amount of 0.2 nM)
[2]; [9]
  aLISA BMP7: C (showed less than 50% of inhibitory activity in 10 nM-addition zone and showed 50% or more of inhibitory activity in 100 nM-addition zone)

## 361 (FG[NMeF]G[Bip]GDE[Cha]A[NMeF]L[Phe(4-COOH)]CG-NH2; not fully specified (N-terminus, bridges)) [compound 361]
[1]; [10]
  aLISA BMP4 (0.2 nM) % inh: ND (the inhibitory activity was less than 30% at the maximum concentration evaluated)
[2]; [11]
  aLISA BMP7 (10 nM) % inh: D (showed less than 30% of inhibitory activity in 10 nM-addition zone and showed 30% or more of inhibitory activity in 100 nM-addition zone)

## 364 (FG[NMeF]G[Bip]GDE[Cha]Q[NMeF]LHCG-NH2; not fully specified (N-terminus, bridges)) [compound 364]
[1]; [10]
  aLISA BMP4 (0.2 nM) % inh: ND (the inhibitory activity was less than 30% at the maximum concentration evaluated)
[2]; [11]
  aLISA BMP7 (10 nM) % inh: D (showed less than 30% of inhibitory activity in 10 nM-addition zone and showed 30% or more of inhibitory activity in 100 nM-addition zone)

## 48 (Ac-ARVYVDR[Bip]PYP[Bip]Y[Phe(4-COOH)][Phe(4-COOH)]SC[βAla]K-NH2; thioether (positions not given here); not fully specified (bridges)) [compound 48]
[1]; [12]
  aLISA BMP4: C (showed an inhibitory activity of less than 50% in 0.2 nM-addition zone and showed an inhibitory activity of 50% or more in 2 nM-addition zone were defined as B or C)
[2]; [12]
  aLISA BMP7: ND (the inhibitory activity was less than 30% at the maximum concentration evaluated)

## Cc1ccc(C[C@H]2C(=O)N[C@@H](CC(C)C)C(=O)N3C[C@@H](O)C[C@H]3C(=O)N[C@H](C(=O)NCCC(=O)N[C@H](CCC(=O)O)C(=O)O)CSCC(=O)N[C@@H](Cc3ccc(F)cc3)C(=O)NCC(=O)N(C)[C@@H](Cc3ccccc3)C(=O)NCC(=O)N[C@@H](Cc3ccc(-c4ccccc4)nc3)C(=O)NCC(=O)N[C@@H](CC(=O)O)C(=O)N[C@@H](CCC(=O)O)C(=O)N[C@@H](CC3CCCCC3)C(=O)N[C@@H](CCCC(=O)O)C(=O)N2C)cc1 [compound 417] ({CH2CO}-[Phe(4-F)]G[NMeF]G[3Pal(6-Ph)]GDE[Cha][Aad][NMePhe(4-Me)]L[cisHyp]C[βAla][dE]-OH; thioether N-14)
[1]; [6]
  aLISA BMP4 (0.2 nM) % inh: ND (the inhibitory activity was less than 30% at the maximum concentration evaluated)
[2]; [7]
  aLISA BMP7 (10 nM) % inh: C (showed less than 30% of inhibitory activity in a zone to which the peptide was added in an amount of 1 nM and showed 30% or more of inhibitory activity in 10 nM-addition zone)

## 343 (FG[NMeF]G[Bip]GDD[Cha][Hgn][NMeF]LHCG-NH2; not fully specified (N-terminus, bridges)) [compound 343]
[1]; [10]
  aLISA BMP4 (0.2 nM) % inh: ND (the inhibitory activity was less than 30% at the maximum concentration evaluated)
[2]; [11]
  aLISA BMP7 (10 nM) % inh: D (showed less than 30% of inhibitory activity in 10 nM-addition zone and showed 30% or more of inhibitory activity in 100 nM-addition zone)

## 326 (FG[NMeF]G[Phe(4-(3-Py))]GDD[Cha]A[NMeF]LHCG-NH2; not fully specified) [compound 326]
[1]; [10]
  aLISA BMP4 (0.2 nM) % inh: ND (the inhibitory activity was less than 30% at the maximum concentration evaluated)
[2]; [11]
  aLISA BMP7 (10 nM) % inh: D (showed less than 30% of inhibitory activity in 10 nM-addition zone and showed 30% or more of inhibitory activity in 100 nM-addition zone)

## 389 (FG[NMeF]G[Bip]GDD[Cha]A[NMePhe(4-Cl)]LHCG-NH2; not fully specified) [compound 389]
[1]; [4]
  aLISA BMP4 (0.2 nM) % inh: B (showed less than 30% of inhibitory activity in 20 nM-addition zone and showed 30% or more of inhibitory activity in 200 nM-addition zone)
[2]; [5]
  aLISA BMP7 (10 nM) % inh: E (showed 30% or more of inhibitory activity in 10 nM-addition zone)

## 99 ({CH2CO}-E[KCOpipzaa]VYVDR[Bip]SYP[Bip]Y[Phe(4-COOH)][Phe(4-COOH)]SC[βAla][dE]-OH; thioether N-17; not fully specified) [compound 99]
[1]; [8]
  aLISA BMP4: A (showed an inhibitory activity of 50% or more in a zone to which the peptide was added to in an amount of 0.2 nM)
[2]; [9]
  aLISA BMP7: C (showed less than 50% of inhibitory activity in 10 nM-addition zone and showed 50% or more of inhibitory activity in 100 nM-addition zone)

## 263 (ERVYV[KCOpipzaa]R[3Pal(6-Ph)]SYV[Bip]Y[Phe(4-COOH)][Phe(4-COOH)]SCG-NH2; not fully specified) [compound 263]
[1]; SMAD1 phosphorylation by BMP4 stimulus, peptide conc. in assay 0.02, 0.2, 2 nM, class symbols
  aLIZA BMP4 (0.2 nM) % Inh: C (showed less than 30% of inhibitory activity in 0.2 nM-addition zone and showed 30% or more of inhibitory activity in 2 nM-addition zone)
[2]; SMAD1 phosphorylation by BMP7 stimulus, peptide conc. in assay 10, 100, 1000 nM, class symbols
  aLIZA BMP7 (10 nM) % Inh: E (showed less than 30% of inhibitory activity in 100 nM-addition zone and showed 30% or more of inhibitory activity in 1,000 nM-addition zone)

## 322 ([4Pal]G[NMeF]G[Bip]GDD[Cha]A[NMeF]LHCG-NH2) [compound 322]
[1]; [10]
  aLISA BMP4 (0.2 nM) % inh: ND (the inhibitory activity was less than 30% at the maximum concentration evaluated)
[2]; [11]
  aLISA BMP7 (10 nM) % inh: D (showed less than 30% of inhibitory activity in 10 nM-addition zone and showed 30% or more of inhibitory activity in 100 nM-addition zone)

## 285 (E[KCOpipzaa]V[Phe(4-COOH)]V[KCOpipzaa]R[3Pal(6-Ph)][KCOpipzaa]Y[Hyp][Bip][4Pal][Phe(4-COOH)][Phe(4-COOH)]SC[βAla]) [compound 285]
[1]; [3]
  aLIZA BMP4 (0.2 nM) % inh: C (showed less than 30% of inhibitory activity in 0.2 nM-addition zone and showed 30% or more of inhibitory activity in 2 nM-addition zone)
[2]; BMP7 10 nM stimulus, peptide conc. in assay 100, 300, 1000 nM, class symbols
  aLIZA BMP7 (10 nM) % inh: H (showed less than 30% of inhibitory activity in 300 nM-addition zone and showed 30% or more of inhibitory activity in 1,000 nM-addition zone)
